Source: US20220048967A1 (published 2022)
Numbered stars: 1 amine (or outer) side, 2 acyl side, 3 side chain; on linkers, the order of the positions; unused ones are H or OH. Square brackets hold non-standard residues; d marks the D form. Side chains are listed from the residue outwards. Ends that are not written are not given here. * marks the point of attachment. C20 diacid = O=C(O)CCCCCCCCCCCCCCCCCCC(=O)*; C18 diacid = O=C(O)CCCCCCCCCCCCCCCCC(=O)*; γGlu = O=C(O)[C@H](CCC(=O)[*:2])N[*:1]; αMeP = C[C@@]1(C(=O)O)CCCN1; AEEA = NCCOCCOCC(=O)O

T1: human gastric inhibitory peptide receptor (GIPR) (human, UniProt P48546 22-466)
T1 sequence (looked up): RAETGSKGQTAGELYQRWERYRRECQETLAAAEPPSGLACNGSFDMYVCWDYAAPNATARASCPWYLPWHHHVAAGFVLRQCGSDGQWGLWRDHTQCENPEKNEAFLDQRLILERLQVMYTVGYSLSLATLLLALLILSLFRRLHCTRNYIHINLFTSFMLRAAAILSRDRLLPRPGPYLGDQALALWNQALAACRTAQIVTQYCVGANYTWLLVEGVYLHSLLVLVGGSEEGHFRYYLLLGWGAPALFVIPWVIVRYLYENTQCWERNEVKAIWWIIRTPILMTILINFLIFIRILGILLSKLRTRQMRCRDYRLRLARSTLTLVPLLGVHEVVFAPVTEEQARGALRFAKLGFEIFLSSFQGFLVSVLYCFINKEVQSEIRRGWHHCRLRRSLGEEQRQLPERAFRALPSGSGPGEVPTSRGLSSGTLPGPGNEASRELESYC


Tests used:
[1] = target: T1, human gastric inhibitory peptide …; experiment: cell-based or functional assay
[2] = target: human GLP-1 receptor (GLP-1R) (human, UniProt P43220 24-463); experiment: cell-based or functional assay

| Binder | hGIPR cAMP EC50 ratio [1] | hGIPR cAMP Rel EC50 [1] [nM] | hGLP1R cAMP EC50 ratio [2] | hGLP1R cAMP Rel EC50 [2] [nM] |
| --- | --- | --- | --- | --- |
| Y[αMeP]EGTFTSDYSILLDEK([AEEA-AEEA-γGlu-C18 diacid])AQQAFIEYLIEGGPSSG-NH2 (N-terminus assumed; SMILES CC[C@H](C)[C@H](NC(=O)[C@H](CC(C)C)NC(=O)[C@H](Cc1ccc(O)cc1)NC(=O)[C@H](CCC(=O)O)NC(=O)[C@@H](NC(=O)[C@H](Cc1ccccc1)NC(=O)[C@H](C)NC(=O)[C@H](CCC(N)=O)NC(=O)[C@H](CCC(N)=O)NC(=O)[C@H](C)NC(=O)[C@H](CCCCNC(=O)COCCOCCNC(=O)COCCOCCNC(=O)CC[C@H](NC(=O)CCCCCCCCCCCCCCCCC(=O)O)C(=O)O)NC(=O)[C@H](CCC(=O)O)NC(=O)[C@H](CC(=O)O)NC(=O)[C@H](CC(C)C)NC(=O)[C@H](CC(C)C)NC(=O)[C@@H](NC(=O)[C@H](CO)NC(=O)[C@H](Cc1ccc(O)cc1)NC(=O)[C@H](CC(=O)O)NC(=O)[C@H](CO)NC(=O)[C@@H](NC(=O)[C@H](Cc1ccccc1)NC(=O)[C@@H](NC(=O)CNC(=O)[C@H](CCC(=O)O)NC(=O)[C@]1(C)CCCN1C(=O)[C@@H](N)Cc1ccc(O)cc1)[C@@H](C)O)[C@@H](C)O)[C@@H](C)CC)[C@@H](C)CC)C(=O)N[C@@H](CCC(=O)O)C(=O)NCC(=O)NCC(=O)N1CCC[C@H]1C(=O)N[C@@H](CO)C(=O)N[C@@H](CO)C(=O)NCC(N)=O) [Example 197] | 0.855 | 0.211 | 0.189 | 0.248 |
| Y[αMeP]EGTFTSDYSILLDRK([AEEA-AEEA-γGlu-C20 diacid])AQHAFIEYLIEGGPSSGAPPPS-NH2 (N-terminus assumed; SMILES CC[C@H](C)[C@H](NC(=O)[C@H](CC(C)C)NC(=O)[C@H](Cc1ccc(O)cc1)NC(=O)[C@H](CCC(=O)O)NC(=O)[C@@H](NC(=O)[C@H](Cc1ccccc1)NC(=O)[C@H](C)NC(=O)[C@H](Cc1c[nH]cn1)NC(=O)[C@H](CCC(N)=O)NC(=O)[C@H](C)NC(=O)[C@H](CCCCNC(=O)COCCOCCNC(=O)COCCOCCNC(=O)CC[C@H](NC(=O)CCCCCCCCCCCCCCCCCCC(=O)O)C(=O)O)NC(=O)[C@H](CCCNC(=N)N)NC(=O)[C@H](CC(=O)O)NC(=O)[C@H](CC(C)C)NC(=O)[C@H](CC(C)C)NC(=O)[C@@H](NC(=O)[C@H](CO)NC(=O)[C@H](Cc1ccc(O)cc1)NC(=O)[C@H](CC(=O)O)NC(=O)[C@H](CO)NC(=O)[C@@H](NC(=O)[C@H](Cc1ccccc1)NC(=O)[C@@H](NC(=O)CNC(=O)[C@H](CCC(=O)O)NC(=O)[C@]1(C)CCCN1C(=O)[C@@H](N)Cc1ccc(O)cc1)[C@@H](C)O)[C@@H](C)O)[C@@H](C)CC)[C@@H](C)CC)C(=O)N[C@@H](CCC(=O)O)C(=O)NCC(=O)NCC(=O)N1CCC[C@H]1C(=O)N[C@@H](CO)C(=O)N[C@@H](CO)C(=O)NCC(=O)N[C@@H](C)C(=O)N1CCC[C@H]1C(=O)N1CCC[C@H]1C(=O)N1CCC[C@H]1C(=O)N[C@@H](CO)C(N)=O) [Example 196] | 0.653 | 0.277 | 0.332 | 0.175 |
